Reference: the RNAGym collection of RNA variant scans (doi:10.7554/elife.90254)

B1: LINE1-full (parent)
chain: UACGUAGGUGGUUUUCCCCUGAUAGUGCUAAGGGGGCCUGGAAGUUUGGACUGGGCAGAGCUCAACACAGCGUGGCAAAGUGGCUGUGGCUAGACUGCCUCUCUGGAUUCCUCGUCACUCAGCAGGGCAUCUCUGAGAGAAAUGCC

Variants of: B1
Experiment: self-cleavage, relative activity (ratio to wild type); higher = more cleavage; in vitro, sequencing; the parent is a self-cleaving ribozyme
Work on U109C U112C yielded a self-cleavage of 1.69. For U14A G48A, the self-cleavage was 1.09. Variant C84U A140G has a self-cleavage of 0.07. G60C gave a self-cleavage of 0.05. For U15C G60A, the self-cleavage was 0.04. For U14A U143A, the self-cleavage was 0.99. C19U U130C showed a self-cleavage of 1.08. In the case of U132C A136U, the self-cleavage is reported as 1.46. U87C G144A showed a self-cleavage of 0.24. With A57G G74A the self-cleavage was 0.46. In the case of U14C U15A, the self-cleavage is reported as 0.93. C56A U134C showed a self-cleavage of 0.07. Variant C63U U143A has a self-cleavage of 0.44. Work on C17A A22G yielded a self-cleavage of 2.19. In the case of G4A A140C, the self-cleavage is reported as 0.27. Work on U96A A121G yielded a self-cleavage of 0.1. C103U A107U showed a self-cleavage of 1.2. For U85A C120A, the self-cleavage was 0.07. Work on A2C U85G yielded a self-cleavage of 0.16. In the case of U1G, the self-cleavage is reported as 0.87. Work on U12C U20A yielded a self-cleavage of 1.23. For U46C A64U, the self-cleavage was 0.55. G25A A67G gave a self-cleavage of 0.5. Work on A121G G125U yielded a self-cleavage of 1.8. For G106A U109C, the self-cleavage was 1.86. In the case of A117G U119G, the self-cleavage is reported as 1.87. C113U gave a self-cleavage of 0.98. For G86C, the self-cleavage was 0.06. A92G C103U showed a self-cleavage of 0.03. For G93C C120U, the self-cleavage was 0.03. With U47C G97A the self-cleavage was 0.59. With U96C G106U the self-cleavage was 0.06. With A65C A140G the self-cleavage was 0.05. In the case of A78U A92U, the self-cleavage is reported as 1.02. Variant A43G A65G has a self-cleavage of 0.09. In the case of G122C, the self-cleavage is reported as 1.5. U9C C120U gave a self-cleavage of 1.3. For U119C G139U, the self-cleavage was 1.47. Work on A78G U115C yielded a self-cleavage of 1.51. U132C A142G gave a self-cleavage of 1.49. U13C C37U showed a self-cleavage of 1.33. Work on U15C A65C yielded a self-cleavage of 0.09. With A43U U46G the self-cleavage was 1.37. A43G G125A gave a self-cleavage of 1.24. In the case of C16A U20A, the self-cleavage is reported as 1.64. U12G G54A showed a self-cleavage of 0.63. A24U A67G gave a self-cleavage of 0.43. For A65U U104A, the self-cleavage was 0.14. In the case of A57C C61U, the self-cleavage is reported as 0.05. With U115C G144C the self-cleavage was 2.13. C63U U91C showed a self-cleavage of 0.18. Work on U9G U115C yielded a self-cleavage of 0.29. For G4A C98A, the self-cleavage was 0.19. For G106A A142U, the self-cleavage was 1.29. Work on G10U A50U yielded a self-cleavage of 1.99. A92G C133U gave a self-cleavage of 0.02. C84A G93U gave a self-cleavage of 0.05. Variant A77C G93A has a self-cleavage of 0.06. Work on A94G U143A yielded a self-cleavage of 0.55. In the case of U91A U100C, the self-cleavage is reported as 0.96. Work on U91C G135A yielded a self-cleavage of 0.73. G40A C145U showed a self-cleavage of 0.64. In the case of U46A G54A, the self-cleavage is reported as 0.37. Work on U102C C128U yielded a self-cleavage of 1.67. Variant U73A A107G has a self-cleavage of 2.03. U100C A117G showed a self-cleavage of 1.49. For U100C A117C, the self-cleavage was 1.31. Work on U52C U73C yielded a self-cleavage of 0.54. U15A U20C showed a self-cleavage of 1.31. With U39A A94G the self-cleavage was 0.36. In the case of G41A A142G, the self-cleavage is reported as 1.18. For A57G U73G, the self-cleavage was 0.69. With A69U U96C the self-cleavage was 0.03. Work on C17U A138U yielded a self-cleavage of 1.29. For A140G U143A, the self-cleavage was 0.79. With U1G G80A the self-cleavage was 0.75. U20C G70U showed a self-cleavage of 0.05. Variant U108G U119C has a self-cleavage of 2.59. In the case of G114U U134A, the self-cleavage is reported as 1.09. In the case of G4A U96C, the self-cleavage is reported as 0.15. Work on A78G G114C yielded a self-cleavage of 1.09. Work on U14A A64G yielded a self-cleavage of 0.21. Work on G25A A64U yielded a self-cleavage of 0.4. U47G C68U gave a self-cleavage of 0.06. Variant G80A A138G has a self-cleavage of 2.06. Work on U45C U91C yielded a self-cleavage of 0.69. U52C U108C showed a self-cleavage of 1.68. For G8A U115C, the self-cleavage was 1.33. A77U G93C showed a self-cleavage of 0.03. With A77U C123U the self-cleavage was 0.84. Work on U73G A142G yielded a self-cleavage of 1.2. G7A U39C showed a self-cleavage of 0.83. Variant U23C U26C has a self-cleavage of 1.29. C99U U115C showed a self-cleavage of 1.15. For C76U U143A, the self-cleavage was 2.12. Work on G35U A124U yielded a self-cleavage of 1.41. U45C C76A gave a self-cleavage of 1.22. In the case of U13C U39G, the self-cleavage is reported as 1.54. U20C G72C gave a self-cleavage of 2.53. G10U U62C gave a self-cleavage of 0.06. In the case of G25A A107G, the self-cleavage is reported as 0.88. With A64G U100A the self-cleavage was 0.23. Work on A42C A43U yielded a self-cleavage of 0.72. G36U showed a self-cleavage of 1.35. Work on U73C G127U yielded a self-cleavage of 0.92. A77U A107U gave a self-cleavage of 0.62. For A22G C71U, the self-cleavage was 0.55. Work on A117G A129C yielded a self-cleavage of 1.93. U14C G105C showed a self-cleavage of 1.84. In the case of C99G U112A, the self-cleavage is reported as 0.69. In the case of A64C A65U, the self-cleavage is reported as 0.06. A129U A142U gave a self-cleavage of 2.13. U14A U87A gave a self-cleavage of 0.15. For A69U U143C, the self-cleavage was 0.07. A92U U108A showed a self-cleavage of 0.6. In the case of A65G A136G, the self-cleavage is reported as 0.07. U52C G75A gave a self-cleavage of 0.9. U29C A57U gave a self-cleavage of 0.33. With U115C A136G the self-cleavage was 1.83. Work on A30G G125U yielded a self-cleavage of 1.47. Work on U9C A124G yielded a self-cleavage of 1.15. Variant U13C U119G has a self-cleavage of 1.28. In the case of U52A A107G, the self-cleavage is reported as 0.98. With A57U G83U the self-cleavage was 0.02. In the case of A42U U85C, the self-cleavage is reported as 0.13. For U13C A141C, the self-cleavage was 1.59. For A24G A129C, the self-cleavage was 0.71. A78G A94G showed a self-cleavage of 0.49. A57G A142G showed a self-cleavage of 0.84. A31U U87C gave a self-cleavage of 0.24. A121G G135A gave a self-cleavage of 2.36. Work on A31U U46C yielded a self-cleavage of 1.05. G49C A140G showed a self-cleavage of 1.51. Variant U73C C120A has a self-cleavage of 1.97. Work on U134A A138G yielded a self-cleavage of 1.63. In the case of G58A U130C, the self-cleavage is reported as 0.05. In the case of G125A U143C, the self-cleavage is reported as 0.64. In the case of A107G A138U, the self-cleavage is reported as 1.44. In the case of A22G U104C, the self-cleavage is reported as 1.26. U9C U91A gave a self-cleavage of 0.7. A124U U130A gave a self-cleavage of 1.7. U26A A65G gave a self-cleavage of 0.16. With U9A U100A the self-cleavage was 0.72. For C101A U115A, the self-cleavage was 1.36. In the case of C3U A22U, the self-cleavage is reported as 0.99. Variant G7A U112C has a self-cleavage of 1.22. Variant U26C C71U has a self-cleavage of 0.9. For A2U U102C, the self-cleavage was 2.12. Variant U14C G88U has a self-cleavage of 0.06. With U96C U112C the self-cleavage was 0.12. For U26G U39A, the self-cleavage was 1.12. With A50U U85C the self-cleavage was 0.14. U26A U81C gave a self-cleavage of 0.74. For G60U U100A, the self-cleavage was 0.02. Work on U96A U104G yielded a self-cleavage of 0.08. Variant U12C U14C has a self-cleavage of 1.12. With U26G A78G the self-cleavage was 1.31. Variant U9A G54A has a self-cleavage of 0.65. G4C A124G gave a self-cleavage of 0.48. Work on A107G A141C yielded a self-cleavage of 1.51. U23A A92G gave a self-cleavage of 0.12. For C110A A124G, the self-cleavage was 1.62. With A43G U119A the self-cleavage was 1.15. For U62A U143G, the self-cleavage was 0.08. For U130C C146U, the self-cleavage was 1.52. U20A G137A showed a self-cleavage of 1.29. U13C A31G gave a self-cleavage of 0.84.
